Consider one molecule from publication doi:10.1101/2024.06.21.600134 (bioRxiv, 2024).

The experiment has as its target LPD-3 (C-terminally tagged, from lpd3::mvenus worms) (C. elegans, UniProt A0A0K3AWP8 1-4022). Put plainly: affinity purification with mass spectrometry.

B1: Spigot (natural protein, C. elegans, UniProt Q4W5H0 1-276, looked up)
chain: MRIFVFDGTSVIYVCAVIILILIWVAIIGQRQIWRHRHNVARVRPQVSLSSRISSKKAVLLRETQLDTVMRLRCENQARLTDCISLQFHGEKPYVHRMIAVDEVTLEIDGQLNRIEGAVQRQAGESTYSYLKRIREKVPSIPLNLVHRIAFLQESARFRPEKFDVEQVMELRSLLNQFLRILSAEYDSLSDEPDMAAPRGVIASFYQFGQKIMPNNSGSKRRRNKFGGSDGVRLLMKEREEQLSLLSPLARASADSPAPAAHLRRQSDSHSALLPQ
Take B1: the binding result is recorded as “binds”.
